From publication PMC6475481 (Journal of the American Chemical Society, 2019)

T1: AqpZ, P60844
T1 chain: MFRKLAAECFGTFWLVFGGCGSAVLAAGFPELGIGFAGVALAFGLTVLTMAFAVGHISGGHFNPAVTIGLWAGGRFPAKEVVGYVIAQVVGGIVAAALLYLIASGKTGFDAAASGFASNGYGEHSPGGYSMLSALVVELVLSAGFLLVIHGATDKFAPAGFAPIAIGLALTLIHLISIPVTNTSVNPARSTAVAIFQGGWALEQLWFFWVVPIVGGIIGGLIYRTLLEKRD

B1: AqpZ, P60844 1-231 (natural protein)
chain: T1 chain
B2: AmtB (natural protein)
chain: VADKADNAFMMICTALVLFMTIPGIALFYGGLIRGKNVLSMLTQVTVTFALVCILWVVYGYSLAFGEGNNFFGNINWLMLKNIELTAVMGSIYQYIHVAFQGSFACITVGLIVGALAERIRFSAVLIFVVVWLTLSYIPIAHMVWGGGLLASHGALDFAGGTVVHINAAIAGLVGAYLIGKRVGFGKEAFKPHNLPMVFTGTAILYIGWFGFNAGSAGTANEIAALAFVNTVVATAAAILGWIFGEWALRGKPSLLGACSGAIAGLVGVTPACGYIGVGGALIIGVVAGLAGLWGVTMLKRLLRVDDPCDVFGVHGVCGIVGCIMTGIFAASSLGGVGFAEGVTMGHQLLVQLESIAITIVWSGVVAFIGYKLADLTVGLRVPEEQEREGLDVNSHGENAYNA

What was measured:
AqpZ, P60844 = molecular target: T1, AqpZ, P60844; assay: native MS; settings: remark: other sources report otherwise
native MS = molecular target: the molecule itself; assay: native MS

| Binder | stoichiometry N (AqpZ, P60844) | stoichiometry N (native MS) |
| --- | --- | --- |
| B1 | 4 | – |
| B2 | – | 3 |
